Test results as given in the DeepSol protein solubility set.

Experiment: soluble on expression in E. coli; label from the status in PepcDB or PDB records

Row | Sequence | soluble on expression in E. coli
1 | MGSDKIHHHHHHMVPHLITALNGPLLELEKKILDATPSIERWFRLEWQEHTPPFYCSVDLRNAGFKLAPVDTNLFPGGFNNLAPEMLPLAVQAAMAAIEKICPDAKNLLLIPERHTRNMFYLQNVARLSLIMRQAGLNVRLGSLSEEITEPTPIELPDGQTLVVEPLARLGTKDRRLGLKDFDPCSILLNNDLSAGIPPILENINEQYLLPPLHAGWSTRRKSSHFAAYDEVAKKFAKLIDIDQWMVNPYFARCSGVNFHERIGEEELADSVEAVLKKIAKKYREYGIKETPYVVVKADAGTYGMGIMTVRDPSEVKGLNRKERNKMSVVKEGLEVSDVIIQEGVHTFEKVNEAVAEPVVYMIDRYVVGGFYRVHTGRGNDENLNAPGMHFVPLAFAPNGIPDSHAKPGAAVPNRFYMYGVVARLALLAASIELEKTDPNPIL | not soluble
2 | WSAEDKHKEGVNSHLWIVNRAIDIMSRNTTLVKQDRVAQLNEWRTELENGIYAANYENPYYDNSTFASHFYDPDNGKTYIPFAKQAKETGAKYFKLAGESYKNKDMKQAFFYLGLSLHYLGDVNQPMHAANFTNLSYPQGFHSKYENFVDTIKDNYKVTDGNGYWNWKGTNPEEWIHGAAVVAKQDYSGIVNDNTKDWFVKAAVSQEYADKWRAEVTPMTGKRLMDAQRVTAGYIQLWFDTYGDR | soluble
3 | SIAILVIMHGESTASSMVNVANTLLDCNHAVAINMGLEDRVQDILVQAVEIANKIDKGKGILILTDMGSILTFAKVIRDATGKEVKAIDMVSTPIVIEATRKALTPEMTLEKLYFNIIESIKKHYGDMEVTYAEKDNGGRY | not soluble
4 | MGSDKIHHHHHHMSKPAITLWSDAHFFSPYVLSAWVALQEKGLSFHIKTIDLDSGEHLQPTWQGYGQTRRVPLLQIDDFELSESSAIAEYLEDRFAPPTWERIYPLDLENRARARQIQAWLRSDLMPIREERPTDVVFAGAKKAPLTAEGKASAEKLFAMAEHLLVLGQPNLFGEWCIADTDLALMINRLVLHGDEVPERLVDYATFQWQRASVQRFIALSAKQSG | not soluble
5 | MKKETLYVAFSTQKGGVGKTTFTVLVASYLYYLKGYNVAVVDCDYPQHSISAMRKRDAEQVNGDDYYKQLAFSQFKTLGKKAYPVLCSSPDEAIKTADEFLASAGSDYDVVFFDLPGTVNSEGVINSLSGVDYIFTPIAADRVVLESSLSFAVAINKLLVKNEACRLKGLHLFWNMVDGREKTDLYTLYEQTIGELELPLMKVFIPDTKRFKKELDAQRKTVFRSTLFPADKRLVKGSNIEELITEIAYLIKL | soluble
6 | MIPLLAFAAWSGTGKTTLLKKLIPALCARGIRPGLIKHTHHDMDVDKPGKDSYELRKAGAAQTIVASQQRWALMTETPDEEELDLQFLASRMDTSKLDLILVEGFKHEEIAKIVLFRDGAGHRPEELVIDRHVIAVASDVPLNLDVALLDINDVEGLADFVVEWMQKQNG | soluble
7 | MGSDKIHHHHHHMTYARKPVADAGIGVGIADDPASLSVLHKPGCAAAIWRRHIPSQAKTWLEGLDPSQLPTGRQMVRPDGVRHAVRDFCKRADTPLGDDLDWLQNDMSMLAEMFAQVMSARVLRLRLDAISTNACSRFHIDAVTARLVCTYRGSGTQYGISTDGRAPRRVFQVATGAPILLRGTLWPEDPPSGVLHRSPPIAGTGETRLVMVLDPIFDPDNGP | not soluble
8 | GMKIEHVALWTTNLEQMKQFYVTYFGATANDLYENKTKGFNSYFLSFEDGARLEIMSRTDVTGKTTGENLGWAHIAISTGTKEAVDELTEKLRQDGFAIAGEPRMTGDGYYESVVLDPEGNRIEITW | soluble
9 | MYSDDLLLEEDSADESSLANAFSRGMQLGSTDASSYSRRFNSNASTSSSNPTTQRRYAPNQAFSQVETGSPPSNDPHARFGQHIPGSQYIPHVSQNSPSRLGQQPPQRYNHGRPNAGRTMDRNHMNAQLPPSNTNSGGQQRSPRSSSYTNGVPWGRRTNNHVPNVPSTSHGRVDYGSIA | soluble
10 | EDATPETVEYRQLSAADLLADTHLLREVFGLLVLAHYRTEPSDLARLLDAPNLTVRALTHEGHVVAVALLAQEGGLSASTRATMYEGGRVRGNMLPDVLSTQLRDEAAGVPVGQRVLRIATHAAVRSRGLGSKLLSEIRAEFADHVDWVGVSYGATPELVRFWADNGYNTVHLATSRNATSGEYSVVMLDP | not soluble
